Experimental data taken from the supplement of paper PMC10065799, “High-throughput profiling of sequence recognition by tyrosine kinases and SH2 domains using bacterial peptide display” (eLife, 2023).

Key:
EPHB1 = EPHB1 (UniProt P54762); experiment: phosphorylation enrichment, bacterial display (enrichment ratio); higher = better substrate or ligand; peptides without Tyr show the background
Hck = Hck (UniProt P08631); experiment: as above
Fer (mouse) = experiment: as above
MERTK = MERTK (UniProt Q12866); experiment: as above
Jak2 = Jak2 (UniProt O60674); experiment: as above
c-Src = experiment: as above
FGFR3 = FGFR3 (UniProt P22607); experiment: as above
AncSZ = experiment: as above
Fyn = Fyn (UniProt P06241); experiment: as above
c-Abl (mouse) = experiment: as above
Fes = Fes (UniProt P07332); experiment: as above
EPHB2 = EPHB2 (UniProt P29323); experiment: as above
FGFR1 = FGFR1 (UniProt P11362); experiment: as above
c-Src SH2 = experiment: SH2 binding enrichment of the phosphorylated peptide, bacterial display (enrichment ratio); higher = better substrate or ligand; peptides without Tyr show the background
Grb2 SH2 = Grb2 SH2 (UniProt P62993); experiment: as above
SHP2-C SH2 = experiment: as above
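For SH2 binding enrichment of the phosphorylated peptide, bacterial display in this document: peptide library displayed on the E. coli surface as eCPX fusions, selected cells deep-sequenced, score is each peptide's frequency after selection divided by its frequency in the input.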
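For phosphorylation enrichment, bacterial display in this document: 11-residue human phosphosite peptides and single-mutation variants displayed on the E. coli surface, counted by deep sequencing, each peptide's frequency after selection divided by its frequency in the unselected input library; frequency after pTyr selection over input frequency; kinase dosed for 20-30% of maximal phosphorylation in three min.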

Sequence of Fes (P07332 whole entry, looked up): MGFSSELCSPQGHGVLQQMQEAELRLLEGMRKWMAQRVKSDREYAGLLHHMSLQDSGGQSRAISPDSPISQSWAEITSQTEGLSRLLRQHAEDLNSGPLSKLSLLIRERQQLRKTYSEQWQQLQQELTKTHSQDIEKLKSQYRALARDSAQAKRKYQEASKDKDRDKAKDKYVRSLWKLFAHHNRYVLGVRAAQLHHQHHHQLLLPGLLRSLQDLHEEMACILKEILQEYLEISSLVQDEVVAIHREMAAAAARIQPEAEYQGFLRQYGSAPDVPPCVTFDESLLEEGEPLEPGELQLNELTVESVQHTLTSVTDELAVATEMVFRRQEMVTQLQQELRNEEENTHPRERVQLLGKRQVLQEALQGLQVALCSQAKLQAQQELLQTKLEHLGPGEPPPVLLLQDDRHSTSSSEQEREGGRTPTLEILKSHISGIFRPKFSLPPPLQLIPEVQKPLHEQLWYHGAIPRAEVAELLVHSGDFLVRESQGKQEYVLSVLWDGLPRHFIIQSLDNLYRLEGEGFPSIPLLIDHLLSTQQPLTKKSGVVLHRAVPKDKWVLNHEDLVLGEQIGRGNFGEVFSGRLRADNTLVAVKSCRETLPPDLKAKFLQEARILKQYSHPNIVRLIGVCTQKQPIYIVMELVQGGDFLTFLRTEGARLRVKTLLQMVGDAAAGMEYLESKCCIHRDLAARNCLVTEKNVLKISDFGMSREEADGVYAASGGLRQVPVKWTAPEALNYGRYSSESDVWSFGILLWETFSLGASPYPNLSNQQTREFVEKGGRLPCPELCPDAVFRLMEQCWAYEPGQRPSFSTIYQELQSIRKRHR
Sequence of MERTK (Q12866 whole entry, looked up): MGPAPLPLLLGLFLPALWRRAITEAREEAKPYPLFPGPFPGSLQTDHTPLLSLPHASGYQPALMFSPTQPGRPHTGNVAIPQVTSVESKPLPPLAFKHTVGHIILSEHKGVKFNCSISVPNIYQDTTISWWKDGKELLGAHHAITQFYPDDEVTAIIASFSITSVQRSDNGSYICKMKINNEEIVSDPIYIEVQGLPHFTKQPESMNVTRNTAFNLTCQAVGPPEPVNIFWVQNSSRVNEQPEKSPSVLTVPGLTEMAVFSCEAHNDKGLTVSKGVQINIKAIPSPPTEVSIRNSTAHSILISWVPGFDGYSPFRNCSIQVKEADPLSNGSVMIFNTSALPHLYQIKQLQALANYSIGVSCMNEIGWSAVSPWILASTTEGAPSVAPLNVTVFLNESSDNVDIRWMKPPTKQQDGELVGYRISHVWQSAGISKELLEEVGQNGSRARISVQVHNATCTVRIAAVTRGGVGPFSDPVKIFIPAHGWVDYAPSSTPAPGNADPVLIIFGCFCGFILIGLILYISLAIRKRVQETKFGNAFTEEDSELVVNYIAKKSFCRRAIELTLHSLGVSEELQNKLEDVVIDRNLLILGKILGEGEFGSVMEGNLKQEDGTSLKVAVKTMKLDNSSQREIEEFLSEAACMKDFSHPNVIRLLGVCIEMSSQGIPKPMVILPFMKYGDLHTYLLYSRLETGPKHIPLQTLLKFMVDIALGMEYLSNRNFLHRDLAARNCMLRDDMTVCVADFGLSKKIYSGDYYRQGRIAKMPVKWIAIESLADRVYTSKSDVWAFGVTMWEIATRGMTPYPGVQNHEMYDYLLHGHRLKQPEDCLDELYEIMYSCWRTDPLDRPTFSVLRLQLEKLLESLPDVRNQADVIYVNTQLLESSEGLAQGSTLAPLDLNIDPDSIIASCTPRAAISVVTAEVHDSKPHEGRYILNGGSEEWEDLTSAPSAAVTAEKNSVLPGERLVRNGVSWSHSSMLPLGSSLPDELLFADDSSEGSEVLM
Sequence of Hck (P08631 whole entry, looked up): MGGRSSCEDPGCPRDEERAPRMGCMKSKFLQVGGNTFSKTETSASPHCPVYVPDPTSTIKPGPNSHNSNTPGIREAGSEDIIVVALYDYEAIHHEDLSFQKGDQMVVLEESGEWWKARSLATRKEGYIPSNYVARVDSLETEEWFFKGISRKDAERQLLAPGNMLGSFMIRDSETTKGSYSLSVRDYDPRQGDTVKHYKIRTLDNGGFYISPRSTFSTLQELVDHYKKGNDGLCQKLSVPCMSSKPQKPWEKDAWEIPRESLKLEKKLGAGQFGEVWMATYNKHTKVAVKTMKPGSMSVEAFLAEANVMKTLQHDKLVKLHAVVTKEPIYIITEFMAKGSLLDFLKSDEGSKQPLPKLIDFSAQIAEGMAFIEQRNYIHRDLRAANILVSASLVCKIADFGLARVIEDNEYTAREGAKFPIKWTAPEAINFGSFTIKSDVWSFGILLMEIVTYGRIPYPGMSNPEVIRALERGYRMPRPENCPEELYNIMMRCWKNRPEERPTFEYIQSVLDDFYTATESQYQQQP
Sequence of FGFR3 (P22607 whole entry, looked up): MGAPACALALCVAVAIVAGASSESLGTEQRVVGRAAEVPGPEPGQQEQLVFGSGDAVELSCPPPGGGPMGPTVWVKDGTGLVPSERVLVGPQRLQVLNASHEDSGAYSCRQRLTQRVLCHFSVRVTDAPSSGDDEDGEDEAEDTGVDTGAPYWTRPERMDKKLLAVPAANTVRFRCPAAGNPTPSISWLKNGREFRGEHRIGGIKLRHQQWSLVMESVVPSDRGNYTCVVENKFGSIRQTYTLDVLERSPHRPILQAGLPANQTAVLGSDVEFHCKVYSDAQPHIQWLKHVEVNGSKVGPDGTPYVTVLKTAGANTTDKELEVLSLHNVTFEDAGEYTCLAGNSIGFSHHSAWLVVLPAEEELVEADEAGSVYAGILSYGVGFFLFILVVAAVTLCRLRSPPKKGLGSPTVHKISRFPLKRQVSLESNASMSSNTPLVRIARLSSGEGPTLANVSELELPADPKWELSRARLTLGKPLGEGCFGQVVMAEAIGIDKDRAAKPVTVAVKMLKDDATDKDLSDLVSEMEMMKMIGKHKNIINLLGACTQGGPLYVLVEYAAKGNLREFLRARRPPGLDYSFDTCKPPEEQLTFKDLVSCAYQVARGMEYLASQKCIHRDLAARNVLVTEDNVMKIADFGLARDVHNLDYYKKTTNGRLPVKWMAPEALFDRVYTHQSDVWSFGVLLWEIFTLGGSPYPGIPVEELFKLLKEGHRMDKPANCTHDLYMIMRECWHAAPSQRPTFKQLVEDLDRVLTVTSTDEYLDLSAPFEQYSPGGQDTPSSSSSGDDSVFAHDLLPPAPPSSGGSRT
Sequence of Jak2 (O60674 whole entry, looked up): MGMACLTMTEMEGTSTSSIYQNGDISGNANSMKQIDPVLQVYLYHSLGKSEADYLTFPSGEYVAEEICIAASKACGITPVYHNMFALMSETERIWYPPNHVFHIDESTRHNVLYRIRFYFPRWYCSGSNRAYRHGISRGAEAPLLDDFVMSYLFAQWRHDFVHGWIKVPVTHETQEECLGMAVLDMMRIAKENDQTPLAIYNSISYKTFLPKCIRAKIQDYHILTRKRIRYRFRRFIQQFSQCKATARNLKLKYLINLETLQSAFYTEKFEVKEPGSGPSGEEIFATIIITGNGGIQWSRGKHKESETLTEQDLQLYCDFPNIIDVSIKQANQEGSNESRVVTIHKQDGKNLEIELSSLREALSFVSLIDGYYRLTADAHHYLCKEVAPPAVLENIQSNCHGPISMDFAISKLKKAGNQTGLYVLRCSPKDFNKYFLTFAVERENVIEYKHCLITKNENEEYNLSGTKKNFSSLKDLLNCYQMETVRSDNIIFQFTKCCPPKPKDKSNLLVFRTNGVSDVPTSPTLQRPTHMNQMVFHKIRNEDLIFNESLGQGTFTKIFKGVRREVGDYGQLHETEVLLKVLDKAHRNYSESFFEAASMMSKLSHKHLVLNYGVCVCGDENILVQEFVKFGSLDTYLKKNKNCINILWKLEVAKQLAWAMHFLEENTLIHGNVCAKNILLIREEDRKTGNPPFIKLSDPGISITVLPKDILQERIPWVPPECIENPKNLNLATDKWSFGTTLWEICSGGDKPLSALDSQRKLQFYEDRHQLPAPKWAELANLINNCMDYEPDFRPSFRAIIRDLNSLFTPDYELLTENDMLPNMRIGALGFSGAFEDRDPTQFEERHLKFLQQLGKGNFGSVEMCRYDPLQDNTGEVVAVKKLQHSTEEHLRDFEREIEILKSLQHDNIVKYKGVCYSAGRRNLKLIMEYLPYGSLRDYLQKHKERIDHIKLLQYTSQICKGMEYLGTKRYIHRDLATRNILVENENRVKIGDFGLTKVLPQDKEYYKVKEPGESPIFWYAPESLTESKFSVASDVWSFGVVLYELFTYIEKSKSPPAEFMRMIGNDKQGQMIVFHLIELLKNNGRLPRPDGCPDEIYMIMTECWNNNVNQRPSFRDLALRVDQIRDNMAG
Sequence of Fyn (P06241 whole entry, looked up): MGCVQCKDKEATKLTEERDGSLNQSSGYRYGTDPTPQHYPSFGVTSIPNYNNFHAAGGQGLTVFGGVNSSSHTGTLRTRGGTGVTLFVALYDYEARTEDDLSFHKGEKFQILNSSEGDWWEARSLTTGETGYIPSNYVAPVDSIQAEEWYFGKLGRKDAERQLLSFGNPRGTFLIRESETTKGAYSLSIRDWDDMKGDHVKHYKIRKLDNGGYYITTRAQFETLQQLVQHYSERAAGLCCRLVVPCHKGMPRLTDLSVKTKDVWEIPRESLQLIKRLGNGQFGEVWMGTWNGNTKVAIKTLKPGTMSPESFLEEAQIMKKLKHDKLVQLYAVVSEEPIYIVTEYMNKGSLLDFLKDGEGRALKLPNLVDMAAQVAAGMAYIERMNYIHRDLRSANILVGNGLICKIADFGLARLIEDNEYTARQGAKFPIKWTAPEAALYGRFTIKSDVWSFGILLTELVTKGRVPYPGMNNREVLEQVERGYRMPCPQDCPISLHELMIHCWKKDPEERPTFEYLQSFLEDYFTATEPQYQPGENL

SH2 binding enrichment (c-Src SH2) | SH2 binding enrichment (Grb2 SH2) | SH2 binding enrichment (SHP2-C SH2) | Sequence | phosphorylation enrichment (EPHB1) | phosphorylation enrichment (Hck) | phosphorylation enrichment (Fer (mouse)) | phosphorylation enrichment (MERTK) | phosphorylation enrichment (Jak2) | phosphorylation enrichment (c-Src) | phosphorylation enrichment (FGFR3) | phosphorylation enrichment (AncSZ) | phosphorylation enrichment (Fyn) | phosphorylation enrichment (c-Abl (mouse)) | phosphorylation enrichment (Fes) | phosphorylation enrichment (EPHB2) | phosphorylation enrichment (FGFR1)
0.795 | 0.666 | 0.473 | GLAELYEFQKK [CKAP5_Y1854_K1857Q_YF] | 0.59 | 1.23 | 0.656 | 0.526 | 0.58 | 0.937 | 0.94 | 0.973 | 0.64 | 0.428 | 0.857 | 0.564 | 0.539
0.363 | 0.795 | 0.917 | KVIDMYLMGCF [GABRB2_Y308_A304V] | 0.636 | 0.608 | 0.638 | 0.429 | 1.24 | 0.593 | 0.842 | 1.28 | 0.535 | 0.964 | 1.38 | 0.55 | 0.619
0.514 | 0.812 | 0.883 | SGDVQYRSSVR [FREM2_Y2158_T2153S] | 0.472 | 0.378 | 0.377 | 0.348 | 0.396 | 0.364 | 0.432 | 0.442 | 0.375 | 0.481 | 0.608 | 0.332 | 0.378
1.28 | 0.728 | 1.01 | PYYTSYPPSPD [GDAP2_Y491] | 3.43 | 2.39 | 0.676 | 9.55 | 3.58 | 6.44 | 3.57 | 1.38 | 5.09 | 1.67 | 1.03 | 5.06 | 4.8
0.811 | 0.835 | 0.763 | IVVVPYEPPEV [TP53_Y220_S215I] | 0.636 | 0.48 | 0.554 | 0.448 | 0.882 | 0.386 | 0.665 | 1.01 | 0.43 | 0.733 | 1.08 | 0.544 | 0.511
9.88 | 0.779 | 0.691 | TLNHQYDYTFD [CSNK1A1_Y292] | 0.512 | 0.536 | 0.432 | 0.453 | 0.783 | 1.27 | 0.824 | 1.05 | 0.519 | 0.565 | 0.964 | 0.706 | 0.85
0.612 | 1.01 | 0.812 | GDEAIYATVAG [NRTKtide_2018] | 12.1 | 9.26 | 13.4 | 9.16 | 0.803 | 7.59 | 3 | 1.59 | 10.7 | 22.1 | 2.64 | 15.5 | 3.87
0.433 | 0.619 | 0.458 | IRKKFYRAILE [CHD7_Y1218_Q1214R_YF] | 0.386 | 0.455 | 0.42 | 0.618 | 0.797 | 0.658 | 0.444 | 0.569 | 0.57 | 0.568 | 0.62 | 0.58 | 0.426
0.741 | 1.21 | 0.761 | CEHRGYLYLAI [TEK_Y897] | 0.664 | 0.614 | 0.551 | 0.708 | 0.973 | 0.527 | 0.72 | 1.04 | 0.494 | 0.84 | 1.51 | 0.53 | 0.726
0.272 | 0.768 | 0.684 | PNATLYKMTSI [SERPINA7_Y40_S43T] | 0.642 | 0.636 | 0.477 | 0.918 | 1.16 | 1.04 | 0.668 | 0.883 | 0.604 | 1.3 | 1.5 | 1.02 | 0.86
3.28 | 0.891 | 1.19 | SNPAYYVLEGV [INPPL1_Y987_N982S] | 0.769 | 0.917 | 0.515 | 7.46 | 4 | 1.21 | 12.1 | 1 | 1.25 | 0.538 | 0.921 | 0.609 | 15.1
0.457 | 0.747 | 0.623 | ADELEYSRTGL [MMUT_Y287_G284E] | 0.596 | 0.517 | 0.437 | 0.407 | 0.741 | 0.464 | 0.645 | 1.11 | 0.482 | 0.644 | 0.972 | 0.568 | 0.402
0.943 | 0.845 | 0.727 | RNDRVYQPLRD [CD3D_Y149_Q147R] | 0.629 | 5.18 | 0.475 | 0.786 | 0.509 | 1.55 | 0.616 | 0.604 | 0.675 | 0.689 | 0.785 | 0.432 | 0.41
0.495 | 0.856 | 0.635 | EFGRRYGFSCQ [CCDC93_Y209_R213C_YF] | 0.539 | 0.418 | 0.534 | 0.491 | 0.911 | 0.468 | 0.62 | 0.914 | 0.547 | 0.733 | 0.989 | 0.504 | 0.629
0.407 | 0.821 | 0.701 | GDEVEYMLVSF [GCLC_Y53] | 0.665 | 1.15 | 2.43 | 0.473 | 0.976 | 1.16 | 3.39 | 2.31 | 0.841 | 0.677 | 1.1 | 0.829 | 3.97
1.09 | 0.759 | 0.339 | AGADGYGYLAP [FOXL2_Y186] | 0.387 | 0.468 | 0.26 | 0.364 | 0.538 | 0.372 | 0.457 | 0.576 | 0.361 | 0.443 | 0.622 | 0.464 | 0.37
0.7 | 1.14 | 1.96 | RNFVHYVQGLK [VWF_Y1400_R1399H] | 0.511 | 0.369 | 0.349 | 0.544 | 0.605 | 0.583 | 0.52 | 0.875 | 0.613 | 0.669 | 0.833 | 0.515 | 0.429
0.723 | 0.755 | 0.535 | SDYSRYARTSI [TERT_Y949_S948R] | 0.434 | 0.428 | 0.388 | 0.444 | 0.549 | 0.444 | 0.351 | 0.59 | 0.443 | 0.46 | 0.581 | 0.495 | 0.428
0.515 | 1 | 0.748 | FSGKAYADEER [CRIM1_Y826] | 0.565 | 0.499 | 0.486 | 0.395 | 0.837 | 0.496 | 0.566 | 0.895 | 0.463 | 0.786 | 1.03 | 0.571 | 0.694
0.5 | 0.967 | 0.56 | IKRIDYEFVEM [ADA_Y84_A83D] | 6.08 | 0.477 | 1.82 | 0.375 | 0.932 | 0.404 | 0.742 | 0.89 | 0.469 | 0.622 | 1.18 | 3.22 | 1.02
0.634 | 1.04 | 0.754 | GRTNIYNNKKD [SLC26A3_Y520_K521N] | 0.311 | 0.365 | 0.326 | 0.301 | 0.691 | 0.435 | 0.349 | 0.418 | 0.347 | 0.433 | 0.632 | 0.339 | 0.324
0.478 | 0.779 | 0.57 | IDGLEYLHSQG [STK11_Y166] | 0.578 | 0.413 | 0.426 | 0.368 | 0.796 | 0.417 | 0.637 | 0.737 | 0.619 | 0.574 | 0.906 | 0.499 | 0.445
1.44 | 0.835 | 1 | DFPGIYSGYDD [POLR1C_Y33_N32I] | 0.627 | 3.4 | 0.687 | 0.565 | 0.946 | 5.19 | 0.696 | 1.09 | 6.48 | 0.796 | 1.05 | 0.652 | 0.485
0.422 | 0.867 | 0.666 | FQRLQYIKQLG [SAMHD1_Y146_R145Q] | 0.92 | 0.418 | 0.453 | 0.404 | 0.934 | 0.476 | 0.517 | 0.715 | 0.374 | 0.665 | 0.854 | 0.705 | 0.451
0.469 | 0.813 | 0.58 | DKVFTYIFIME [SCN4A_Y1074] | 0.645 | 0.575 | 0.658 | 0.41 | 1.35 | 0.533 | 1.14 | 1.32 | 0.41 | 0.968 | 1.53 | 0.695 | 0.54
1.39 | 1.03 | 1.03 | AVISVYDLVAV [PSEN1_Y256] | 6.18 | 6.2 | 13 | 6.38 | 0.82 | 4.51 | 0.577 | 1.24 | 6.35 | 0.753 | 1.2 | 4.92 | 0.429
0.394 | 0.639 | 0.689 | SWKRRYFLLRA [APBB1IP_Y331] | 0.595 | 0.943 | 0.565 | 0.759 | 0.609 | 0.713 | 0.655 | 0.727 | 0.564 | 0.637 | 0.631 | 0.58 | 0.614
0.447 | 0.74 | 0.629 | EILLSDLRTGY [TGM1_Y365_Y365D] | 0.367 | 0.553 | 0.362 | 0.422 | 0.744 | 0.401 | 0.616 | 0.673 | 0.416 | 0.421 | 0.845 | 0.455 | 0.511
0.442 | 0.81 | 0.517 | FARNSYVAGQF [G6PD_Y107_YF] | 0.321 | 0.501 | 0.36 | 0.427 | 0.522 | 0.408 | 0.522 | 0.662 | 0.489 | 0.442 | 0.712 | 0.398 | 0.503
